Results taken from patent publication US20110172153A1 (GENERAL HOSPITAL, published 2011).
Ends that are not written are not given here.

T1: human parathyroid hormone receptor (PTHR) (human, UniProt Q03431 27-593)
T1 construct: Assayed in membranes of HKRK-B7 cells or of transiently transfected COS-7 cells, or on intact HKRK-B7/HKRK-B64/COS-7 cells; RG = co-transfected with negative-dominant Galpha-s; R0 = receptor alone plus GTPgammaS; also called hPTHR; human PTH receptor
T1 sequence: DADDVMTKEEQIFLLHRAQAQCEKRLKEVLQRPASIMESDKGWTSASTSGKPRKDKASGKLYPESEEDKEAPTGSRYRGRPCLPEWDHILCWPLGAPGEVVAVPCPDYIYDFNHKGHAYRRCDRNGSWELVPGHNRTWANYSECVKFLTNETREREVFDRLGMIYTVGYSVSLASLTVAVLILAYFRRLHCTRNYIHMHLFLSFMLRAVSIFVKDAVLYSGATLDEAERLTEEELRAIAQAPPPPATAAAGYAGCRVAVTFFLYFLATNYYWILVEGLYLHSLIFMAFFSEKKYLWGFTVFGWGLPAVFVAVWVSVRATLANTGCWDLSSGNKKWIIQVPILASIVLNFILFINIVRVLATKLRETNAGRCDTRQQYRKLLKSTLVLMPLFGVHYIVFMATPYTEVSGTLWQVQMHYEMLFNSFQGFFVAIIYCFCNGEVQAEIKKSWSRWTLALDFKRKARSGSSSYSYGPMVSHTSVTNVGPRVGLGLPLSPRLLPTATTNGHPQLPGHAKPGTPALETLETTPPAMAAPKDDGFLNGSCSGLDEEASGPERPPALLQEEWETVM

B1: [A1,3,23,Q10,R11]-PTH(1-34)OH (peptide)
peptide: AVAEIQLMHQRGKHLNSMERVEALRKKLQDVHNF-OH
notes: also called [A^1,A^3,A^23,Q^10,R^11]-PTH(1-34)OH; [A1,3,23,Q10,R11]-hPTH(1-34)

biological target: T1, human parathyroid hormone receptor …; assay: competition radioligand binding, hPTHR RG conformation
Experimental: (§1) Binding Studies. Binding studies were performed using cell membranes as described (Dean et al., Mol Endocrinol 20(4):931-43 (2006)). […] Reactions contained a total membrane protein concentration of 20 to 100 μg/mL, and a total radioactivity concentration of approximately 150,000 cpm/ml. Unlabeled peptide ligands and/or GTPγS (Sigma-Aldrich Inc. St. Louis, Mo.) were added to the reactions as indicated. At the end of the reaction, bound and free radioligand were separated by vacuum filtration using a 96-well vacuum filter plate and vacuum filter apparatus (Multi-Screen system with Durapore HV, […] filters; Millipore Corp., Milford, Mass.); the air-dried filters were then detached from the plate and counted for gamma radioactivity using a gamma counter.
(§2) To assess the capacities of various unlabeled peptide ligands to bind to the G protein-uncoupled and G protein-coupled PTHR conformations (R⁰ and RG, respectively), membranes were prepared from transiently transfected COS-7 cells and the following assay conditions.

| IC50 [nM] | Binder |
| --- | --- |
| 0.1 | AVSEHQLLHDKGKSIQDERRRAFLLKLI-NH2 (also called EALK-PTHrP(1-28)) [E18,A22,L25,K26-PTHrP(1-28)NH] |
| 0.05 | AVSEHQLLHDKGKSIQDARRRAFLLKLIAE-NH2 [A18,22,L25,K26-PTHrP(1-30)NH] |

biological target: T1, human parathyroid hormone receptor …; assay: ratio of R0 IC50 to RG IC50, hPTHR

| R0/RG selectivity | Binder |
| --- | --- |
| 18300 | AVSEHQLLHDKGKSIQDERRRAFLLKLI-NH2 (also called EALK-PTHrP(1-28)) [E18,A22,L25,K26-PTHrP(1-28)NH] |

biological target: T1, human parathyroid hormone receptor …; assay: cell-based or functional assay

| cAMP in HKRK-B7 cells, EC50 [nM] | cAMP in HKRK-B7 cells, Max [pm/well] | Binder |
| --- | --- | --- |
| 3.25 | 65.5 | AVAEIQLMHQRAKWLNSMRRVEWLRKKLQDVHNF-OH [Mc-hPTH(1-34)OH] |
| 1.76 | 63.8 | B1 |

biological target: T1, human parathyroid hormone receptor …; assay: competition radioligand binding, human PIR R0
Experimental: as §1, §2

| IC50 [nM] | Binder |
| --- | --- |
| 1740 | AVSEHQLLHDKGKSIQDERRRAFLLKLI-NH2 (also called EALK-PTHrP(1-28)) [E18,A22,L25,K26-PTHrP(1-28)NH] |
| 2060 | AVSEHQLLHDKGKSIQDERRRSFLLKLI-NH2 [E18,S22,L25,K26-PTHrP(1-28)NH] |
| 540 | AVSEHQLLHDKGKSIQDARRRSFLLKLI-NH2 [A18,S22,L25,K26-PTHrP(1-28)NH] |
| 144 | AVSEHQLLHDKGKSIQDARRRAFLLKLIAE-NH2 [A18,22,L25,K26-PTHrP(1-30)NH] |

biological target: T1, human parathyroid hormone receptor …; assay: screen, binding to human PIR R0 relative to parent PTHrP(1-28)NH; footnote not given

| human PIR R0 (% parent) | Binder |
| --- | --- |
| 160 | AVSEHQLLHDKGKSIQDARRRAFLHALI-NH2 [A18,22,26-PTHrP(1-28)NH] |
| 126 | AVSEHQLLHDKGKSIQDARRRWFLHALI-NH2 [A18,26,W22-PTHrP(1-28)NH] |
| 120 | AVSEHQLLHDKGKSIQDERRRKFLHKLI-NH2 [E18,K22,26-PTHrP(1-28)NH] |
| 46.6 | AVSEHQLLHDKGKSIQDERRRWFLHKLI-NH2 [E18,W22,K26-PTHrP(1-28)NH] |
| 133 | AVSEHQLLHDKGKSIQDARRRLFLHALI-NH2 [A18,26,L22-PTHrP(1-28)NH] |
| 15 | AVSEHQLLHDKGKSIQDARRRSFLHKLI-NH2 [A18,S22,K26-PTHrP(1-28)NH] |
| 84.4 | AVSEHQLLHDKGKSIQDERRRNFLHKLI-NH2 [E18,N22,K26-PTHrP(1-28)NH] |

biological target: T1, human parathyroid hormone receptor …; assay: screen, binding to human PIR RG relative to parent PTHrP(1-28)NH; footnote not given

| human PIR RG (% parent) | Binder |
| --- | --- |
| 167 | AVSEHQLLHDKGKSIQDARRRAFLHALI-NH2 [A18,22,26-PTHrP(1-28)NH] |
| 120 | AVSEHQLLHDKGKSIQDARRRWFLHALI-NH2 [A18,26,W22-PTHrP(1-28)NH] |
| 208 | AVSEHQLLHDKGKSIQDERRRKFLHKLI-NH2 [E18,K22,26-PTHrP(1-28)NH] |
| 149 | AVSEHQLLHDKGKSIQDERRRWFLHKLI-NH2 [E18,W22,K26-PTHrP(1-28)NH] |
| 163 | AVSEHQLLHDKGKSIQDARRRLFLHALI-NH2 [A18,26,L22-PTHrP(1-28)NH] |
| 175 | AVSEHQLLHDKGKSIQDARRRSFLHKLI-NH2 [A18,S22,K26-PTHrP(1-28)NH] |
| 147 | AVSEHQLLHDKGKSIQDERRRNFLHKLI-NH2 [E18,N22,K26-PTHrP(1-28)NH] |

biological target: T1, human parathyroid hormone receptor …; assay: competition radioligand binding, human PIR RG
Experimental: as §1, §2

| IC50 [nM] | Binder |
| --- | --- |
| 0.1 | AVSEHQLLHDKGKSIQDERRRAFLLKLI-NH2 (also called EALK-PTHrP(1-28)) [E18,A22,L25,K26-PTHrP(1-28)NH] |
| 0.11 | AVSEHQLLHDKGKSIQDERRRSFLLKLI-NH2 [E18,S22,L25,K26-PTHrP(1-28)NH] |
| 0.1 | AVSEHQLLHDKGKSIQDARRRSFLLKLI-NH2 [A18,S22,L25,K26-PTHrP(1-28)NH] |
| 0.05 | AVSEHQLLHDKGKSIQDARRRAFLLKLIAE-NH2 [A18,22,L25,K26-PTHrP(1-30)NH] |

biological target: T1, human parathyroid hormone receptor …; assay: competition radioligand binding, human PTH1 receptor R0
Experimental: as §1, §2

| IC50 [nM] | Binder |
| --- | --- |
| 197 | B1 |

biological target: T1, human parathyroid hormone receptor …; assay: competition radioligand binding, hPTHR R0 conformation
Experimental: as §1, §2

| IC50 [nM] | Binder |
| --- | --- |
| 1740 | AVSEHQLLHDKGKSIQDERRRAFLLKLI-NH2 (also called EALK-PTHrP(1-28)) [E18,A22,L25,K26-PTHrP(1-28)NH] |
| 144 | AVSEHQLLHDKGKSIQDARRRAFLLKLIAE-NH2 [A18,22,L25,K26-PTHrP(1-30)NH] |
